Assay results: patent US8114412B2, “T. cruzi-derived neurotrophic agents and methods of use therefor” (priority 1999, dated 2012)
“Also recorded” adds a separate entry of the source.

Columns and labels:
N18 cells = experiment: Neurite outgrowth assay in N18 cells; type: cell-based; conditions: immobilized proteins coated at 500 μg/ml, 17 hours (FIG. 3A)
Protocol: FIG. 3A is a graph showing that neurite outgrowth in N18 cells is induced by immobilized laminin (Ln), immobilized TS and immobilized fragments of TS. Proteins were immobilized by incubating plates which contained wells filled with solutions of the proteins (protein concentration was 500 μg/ml) at 4° C. overnight. The protein solutions were removed and the plates were further incubated with 1% BSA at room temperature for one hour. N18 cells were cultured in the coated wells in serum-free RPMI-1640/0.2% BSA for 17 hours, and neurite outgrowth was measured by phase-contrast microscopy. […] Ln, laminin; TS, purified T. cruzi trans-sialidase; 7F, recombinant TS from clone 7F; 19Y, recombinant TS from clone 19Y; TS-F, recombinant fragment consisting of amino acid residues 33-666 of TS (SEQ ID NO:2); TS-CC-47, recombinant fragment consisting of amino acid residues 79-478 of TS (SEQ ID NO:2); TS-Cat-47, recombinant fragment consisting of amino acid residues 79-415 of TS (SEQ ID NO:2); BSA, bovine serum albumin.
96-well microtiter plates were coated overnight at 4° C. with the TS or peptides or fragments thereof, or with control proteins laminin (Ln) or bovine serum albumin (BSA) at 500 μg/ml. After removing the compounds, the plates were further incubated with 1% BSA for 1 hour at room temperature and immediately used as substratum for PC12 or N18 (Prasad, K. N., Biol Rev Camb Philos Soc, 66:431-451 (1991)) cells in serum-free RPMI/0.2% BSA. Neurite outgrowth was measured using a phase-contrast microscope 17 hours later.

PC12 cells = experiment: Trophic factor withdrawal-induced apoptosis of PC12 cells (DAPI/TUNEL); type: cell-based, rat; conditions: serum-free RPMI-1640/0.2% BSA, 17 hours, DAPI or TUNEL
How it was run: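 PC12 cells were washed and plated at 2×10^5/ml in serum-free RPMI/0.2% BSA on collagen, with or without test agents. Apoptosis was scored by DAPI nuclear staining (300-400 cells counted) or TUNEL. Protection was calculated as 100% − (apoptosis% with agent ÷ apoptosis% in RPMI alone)×100%; wortmannin or LY294002 was added after 24 h, with DAPI read 24 h later.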

human Schwann cells = experiment: Serum withdrawal-induced apoptosis of immortalized human Schwann cells (DAPI); type: cell-based
Akt kinase in PC12 cells = experiment: Immunodetection of activated Akt (Ser 473) in PC12 cells; type: cell-based, rat; conditions: 100 ng/ml, 2, 5 or 10 minutes; phospho-Akt (Ser 473) antibody
Protocol: PC12 cells were deprived of serum for 24-48 hours, stimulated with TS, TS-F or LTR for 2, 5 or 10 minutes and immediately lysed with 2% SDS. In studies using the PI-3 kinase inhibitor, LY294002 (LY), cells were pre-treated with the inhibitor (1 μM) for 30 min prior to the addition of TS-F or TS. The proteins in the cell lysate were separated in SDS-10% polyacrylamide gels, transferred to nitrocellulose membrane (Bio-Rad) and the phosphorylated form of protein kinase Akt was detected with phospho-Akt (Ser 473) antibody (New England BioLabs, Beverly, Mass.), followed by alkaline phosphatase-conjugated secondary antibody (Promega, Madison, Wis.). Bands corresponding to phospho-Akt (60 kDa) were quantified using a scanning densitometer (Bio-Rad).

[1] = system: human bladder carcinoma T-24 cell line; experiment: IL-6 secretion by T-24 carcinoma cells (ELISA); type: cell-based; conditions: 24 hours culture
Protocol: Primary cultures of human intestinal microvascular endothelial cells (HIMEC) isolated from normal jejunal mucosa/submucosal tissue were prepared as described (Strong et al., Gastroenterology 114: 1244-1256 (1998)). The HIMEC were cultured in fibronectin-coated plasticware in MCDB medium (Sigma) supplemented with 20% FBS, 90 μg/ml heparin and 50 μg/ml endothelial cell growth factor (Sigma). T-24 cells (ATCC Accession No. HTB-4) were cultured in M199 medium supplemented with 10% FBS. PBMC were purified by Ficoll-Paque gradient as described (Current Protocols in Immunology, pp 7.1.1-7.1.2). Vero cells (ATCC Accession No. CCL-81) were grown in RPMI medium with 5% Nu serum and infected with the Silvio X-10/4 of T. cruzi as described previously (Chuenkova et al., J. Exp. Med. 181: 1693-1703, (1995)).
Endothelial cells and T-24 cells were plated on 24-well plates at a density of 1×10^3 cells/well, while peripheral blood mononuclear cells (PBMC) were plated in the similar wells at 1×10^6/well. Triplicat cultures of cells were incubated test agents for a predetermined amount of time. […] Cytokines and chemokines released in the culture supernatants were measured by ELISA assay following the instructions of the manufacturer (Endogen). The cytokines tested were IL-1β, IL-4, IL-8, IL-10, IL-12, IFN-γ, TNF-α, and the chemokines RANTES and MCP-1. Negative controls were cells incubated in medium containing polymixin B at 10 μg/ml, and positive controls were cells incubated with bacterial LPS at the low ng/ml range (for PBMC or HIMEC) or in the μg/ml range for carcinoma T-24 cells. In some experiments, IL-1β, or TNFα were used as positive control for cytokine release.

B1: TS-F: recombinant full catalytic domain of TS, amino acid residues 33-666, His-tagged, expressed in E. coli (protein, listed as Trypanosoma cruzi)
chain: ETQIAIKNSRVSSVSRVVDPTVIVKGNKLYVLVGSYYSSRSYWSSHGDARDWDILLAVGEVTKSTAGGKITASIKWGSPVSLKKFFPAEMEGMHTNQFLGGAGVAIVASNGNLVYPVQVTNKRKQVFSKIFYSEDDGKTWKFGKGRSDFGCSEPVALEWEGKLIINTRVDWKRRLVYESSDMEKPWVEAVGTVSRVWGPSPKSNQPGSQTSFTAVTIEGMRVMLFTHPLNFKGRCVRDRLNLWLTDNQRIYNVGQVSIGDENSAYSSVLYKDDKLYCLHEINTDEVYSLVFARLVGELRIIKSVLRSWKNWTATCPAFAPLLIQPLRRQRVVVVPLSPRLVLLAFCRQRLPKRMGGSYRCVNASTANAERVRNGLKFAGVGGGALWPVSQQGQNQRYRFANHAFTLVASVTIHEAPRAASPLLGASLDSSGGKKLLGLSYDEKHQWQPIYGSTPVTPTGSWETGKRYHLVLTMANKIGSVYIDGELLEGSGQTVVPDGRTPDISHFYVGGYKRSDMPTISHVTVNNVLLYNRRQLNTEEIRTLFLSQDLIGTEAHMDSSSDSSAHSTPSTPADSSAHSTPSTPVDSSAHSTPSTPADSSAHGTPSTPVDSSAHGTPSTPADSSAHGTPSTPVDS
modifications: His tag
notes: recombinant full catalytic domain of TS, amino acid residues 33-666, His-tagged, expressed in E. coli
neurite outgrowth in N18 cells (N18 cells): induced neurite outgrowth to about the same extent as the intact enzyme | protection of PC12 cells from apoptosis induced by trophic factor withdrawal (PC12 cells): survival being induced | fragmented nuclei in serum-starved Schwann cells transfected with empty vector (neo) (human Schwann cells; CD 500 ng/ml): decreased the number of fragmented nuclei by about ten-fold | survival of Schwann cells transfected with PTEN mutant pG129R (human Schwann cells; CD 500 ng/ml): did not detectably enhance | protection of Schwann cells from apoptosis compared with 2% serum (human Schwann cells; CD 500 ng/ml (6 nM) in serum-free DMEM, 72 hours, listed as CD): nearly as effective as 2% serum | survival of control Schwann cells transfected with GFP vector (human Schwann cells; CD 500 ng/ml, serum-free 48 hours): did increase survival | survival of Schwann cells over expressing kinase-inactive Akt (AktKI) (human Schwann cells; CD 500 ng/ml, serum-free 48 hours, listed as CD): did not increase survival; also recorded: did not promote survival | rescue from apoptosis of Schwann cells over expressing PTEN (human Schwann cells; CD 500 ng/ml, listed as CD): did not rescue cells from apoptotic death | inhibition of serum withdrawal-induced apoptosis of human Schwann cells (human Schwann cells; serum-free DMEM, 24-72 hours, DAPI, listed as CD): protected Schwann cells against apoptosis; also recorded: protected human Schwann cells from apoptosis; also recorded: dose-dependent inhibition | phosphorylation/activation of Akt kinase in PC12 cells (Akt kinase in PC12 cells): effective in activating Akt | IL-6 secretion by T-24 cells [1]: did not promote IL-6 release
